Columns and labels:
CXCR2 = molecular target: T1, CXCR2 (UniProt P25025 1-360, limits assumed); test: binding to cells expressing CXCR2, fluorescence counts (FL1 Counts) against Log M
T1 construct: whole, on cells; The cell line is not described
T1 sequence (looked up): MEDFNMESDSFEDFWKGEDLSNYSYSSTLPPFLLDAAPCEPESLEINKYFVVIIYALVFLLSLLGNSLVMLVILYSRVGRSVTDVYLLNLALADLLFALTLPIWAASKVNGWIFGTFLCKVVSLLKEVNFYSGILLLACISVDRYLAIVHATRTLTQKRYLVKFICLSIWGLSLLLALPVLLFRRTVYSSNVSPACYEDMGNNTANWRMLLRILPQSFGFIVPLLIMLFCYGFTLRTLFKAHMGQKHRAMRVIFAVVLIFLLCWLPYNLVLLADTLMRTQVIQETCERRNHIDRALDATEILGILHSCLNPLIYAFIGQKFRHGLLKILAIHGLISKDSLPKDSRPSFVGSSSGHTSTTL

human CCR9B = molecular target: T2, human CCR9B (human, UniProt P51686 13-369); test: binding to HEK cells expressing human CCR9B, fluorescence counts (FL1 Counts) against Log M
T2 construct: Overexpressed on HEK cells; also called Hu B HEK; hCCR9 isoform B
T2 sequence: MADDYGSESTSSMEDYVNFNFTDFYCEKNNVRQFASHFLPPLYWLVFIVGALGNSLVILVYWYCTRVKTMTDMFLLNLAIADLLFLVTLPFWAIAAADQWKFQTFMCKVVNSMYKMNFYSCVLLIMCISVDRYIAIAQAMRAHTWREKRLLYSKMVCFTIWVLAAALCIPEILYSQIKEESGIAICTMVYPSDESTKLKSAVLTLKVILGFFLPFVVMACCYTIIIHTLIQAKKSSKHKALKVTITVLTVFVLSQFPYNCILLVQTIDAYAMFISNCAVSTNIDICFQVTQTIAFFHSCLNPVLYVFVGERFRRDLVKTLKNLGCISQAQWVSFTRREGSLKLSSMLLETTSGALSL

CCR5 = molecular target: T3, CCR5 (UniProt P51681 1-352, limits assumed); test: binding to cells expressing CCR5, fluorescence counts (FL1 Counts) against Log M
T3 construct: whole, on cells; The cell line is not described

CCR8 = molecular target: T4, CCR8 (UniProt P51685 1-355, limits assumed); test: binding to cells expressing CCR8, fluorescence counts (FL1 Counts) against Log M
T4 construct: whole, on cells; The cell line is not described

cynomolgus CCR9 = molecular target: T5, cynomolgus CCR9 (cynomolgus, UniProt Q0H741 1-369); test: binding to HEK cells expressing cynomolgus CCR9, fluorescence counts (FL1 Counts) against Log M
T5 construct: Overexpressed on HEK cells, or endogenous on cynomolgus PBMC; also called cynomolgus CCR9A; Cyno HEK
T5 sequence: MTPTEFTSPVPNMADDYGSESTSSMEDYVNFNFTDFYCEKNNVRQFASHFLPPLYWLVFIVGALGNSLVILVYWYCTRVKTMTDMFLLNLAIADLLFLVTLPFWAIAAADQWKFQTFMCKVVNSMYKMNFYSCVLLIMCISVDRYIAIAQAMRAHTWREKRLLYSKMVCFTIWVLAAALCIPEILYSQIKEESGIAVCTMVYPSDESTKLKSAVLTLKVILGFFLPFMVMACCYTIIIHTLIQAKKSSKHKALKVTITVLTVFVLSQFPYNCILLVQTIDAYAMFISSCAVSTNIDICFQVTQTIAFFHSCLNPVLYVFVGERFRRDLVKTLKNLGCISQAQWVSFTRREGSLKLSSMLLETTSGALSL

CXCR1 = molecular target: T6, CXCR1 (UniProt P25024 1-350, limits assumed); test: binding to cells expressing CXCR1, fluorescence counts (FL1 Counts) against Log M
T6 construct: whole, on cells; The cell line is not described
T6 sequence (looked up): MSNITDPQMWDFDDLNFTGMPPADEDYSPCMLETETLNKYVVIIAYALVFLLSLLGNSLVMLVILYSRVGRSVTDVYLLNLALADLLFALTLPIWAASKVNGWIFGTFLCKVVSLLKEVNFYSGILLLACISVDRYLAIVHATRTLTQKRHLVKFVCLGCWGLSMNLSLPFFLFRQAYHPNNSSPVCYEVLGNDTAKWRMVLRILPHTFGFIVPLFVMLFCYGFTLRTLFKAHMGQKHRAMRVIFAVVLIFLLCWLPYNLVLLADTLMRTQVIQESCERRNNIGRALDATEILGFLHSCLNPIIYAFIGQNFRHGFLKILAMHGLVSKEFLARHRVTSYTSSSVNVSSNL

T4 sequence (P51685 whole entry): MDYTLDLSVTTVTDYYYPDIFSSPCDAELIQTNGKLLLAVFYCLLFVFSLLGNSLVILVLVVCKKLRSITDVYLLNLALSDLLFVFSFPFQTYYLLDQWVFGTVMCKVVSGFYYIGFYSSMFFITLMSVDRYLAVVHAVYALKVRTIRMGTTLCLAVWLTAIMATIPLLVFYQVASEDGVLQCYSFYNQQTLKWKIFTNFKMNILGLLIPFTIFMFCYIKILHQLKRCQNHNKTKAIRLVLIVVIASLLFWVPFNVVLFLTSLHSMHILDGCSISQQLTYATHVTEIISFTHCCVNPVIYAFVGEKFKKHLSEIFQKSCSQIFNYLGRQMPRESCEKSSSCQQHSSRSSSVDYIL
T3 sequence (P51681 whole entry): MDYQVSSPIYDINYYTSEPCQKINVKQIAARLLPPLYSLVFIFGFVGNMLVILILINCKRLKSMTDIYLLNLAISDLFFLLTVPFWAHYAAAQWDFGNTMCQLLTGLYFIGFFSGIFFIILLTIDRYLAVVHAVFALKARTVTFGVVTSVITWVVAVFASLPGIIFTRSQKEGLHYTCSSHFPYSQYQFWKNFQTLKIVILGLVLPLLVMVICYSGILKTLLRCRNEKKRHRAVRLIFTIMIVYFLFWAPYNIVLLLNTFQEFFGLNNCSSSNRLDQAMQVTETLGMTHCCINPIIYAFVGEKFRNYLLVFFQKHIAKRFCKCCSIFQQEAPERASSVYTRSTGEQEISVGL

B1: humanised AB1020243 afuc (AB1020243-fgl) (antibody, V domains shown)
VH: QVQLVQSGAEVKKPGASVKVSCKASGYTFTSYWMHWVRQAPGQGLEWIGVIYPGNSDTRYNQKFKGRVTITRDTSASTAYMELSSLRSEDTAVYYCTRDYYSNYVYYYAMDYWGQGTTVTVSS
VL: DIVMTQTPLSLPVTPGEPASISCRSSQSLVHSNGNTYLHWYLQKPGQSPQLLIYKVSNRFSGVPDRFSGSGSGTDFTLKISRVEAEDVGVYYCSQSTHVPWTFGQGTKLEIK
modifications: afucosylated form; in the LigandTracer assay DyLight 650 Maleimide on an engineered cysteine residue in the CH2 region
notes: Human IgG1 format is stated for LigandTracer; Full chains are not tied to the tested lot
- binding result (CXCR2): no binding (tested: Log M about -6.5 (about 3e-7 M))
- binding result (human CCR9B): binds
- binding result (CCR5): no binding (tested: Log M about -6.5 (about 3e-7 M))
- binding result (CCR8): no binding (tested: Log M about -6.5 (about 3e-7 M))
- EC50 (read off the curve) (cynomolgus CCR9): ~400 pM
- binding result (CXCR1): no binding (tested: Log M about -6.5 (about 3e-7 M))

Reference: US20250084174A1 (AstraZeneca / MedImmune, published 2025)
